# T1: interleukin 8 (CXCL8) (100-175: Shenandoah Biotechnology, Inc.) (UniProt P10145 28-99)
# T1 construct: the antibodies tested are mouse anti-human IL-8 antibodies; also called IL-8
# T1 sequence (looked up): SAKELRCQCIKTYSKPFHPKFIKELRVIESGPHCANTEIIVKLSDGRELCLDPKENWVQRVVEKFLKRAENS
# What was measured:
# [1] = biological target: T2, human IL6 protein, His and GST tags (active) (GTX00094-pro: GeneTex, Inc.) (human, UniProt P05231 30-212, limits assumed); experiment: SPR (Biacore 8K), antigen immobilized on CM4 chip, antibody as analyte
# T2 construct: Bought reagent; not shown: His and GST tags
# Experimental: (§1) (4.1) For anti-IL-6 antibody, anti-IL-8 antibody, and anti-IL-12 antibody Affinity of the original antibodies and variants was measured using Biacore (registered trademark) 8K (Cytiva). As antigens, human IL6 protein, His and GST tags (active) (GTX00094-pro: GeneTex, Inc.), interleukin 8 (CXCL8) (100-175: Shenandoah Biotechnology, Inc.), and human IL 12 protein (Recombinant His, C-terminus) (aa23-328) (LS-G134297-50: LSBio, Inc.) were used. The antigen was immobilized to a sensor chip for Biacore (registered trademark) Series S Sensor Chip CM4 (GE Healthcare). Each antibody solution obtained in the above (3.2) was diluted to prepare an antibody solution for measurement. The concentration of each antibody in the antibody solution for measurement was as follows. In the solutions of the anti-IL-6 antibody (58-1) and its R3, R4 and R5 variants, the concentration was 100 nM, 50 nM, 25 nM, 12.5 nM and 6.25 nM. In the solution of the anti-IL-6 antibody (44-15), the concentration was 100 nM, 50 nM, 25 nM, 12.5 nM and 6.25 nM, and in the solutions of its R3, R4 and R5 variants, the concentration was 50 nM, 25 nM, 12.5 nM, 6.25 nM and 3.13 nM. In the solutions of the anti-IL-8 antibody (166-1) and its R3, R4 and R5 variants, the concentration was 100 nM, 50 nM, 25 nM, 12.5 nM and 6.25 nM. In the anti-IL-8 antibody (146-1) solution, the concentration was 100 nM, 50 nM, 25 nM, 12.5 nM and 6.25 nM, in the solution of its R3 variant, the concentration was 50 nM, 25 nM, 12.5 nM, 6.25 nM and 3.13 nM, and in the solutions of its R4 and R5 variants, the concentration was 25 nM, 12.5 nM, 6.25 nM, 3.13 nM and 1.56 nM. In the anti-IL-12 antibody solution, the concentration was 50 nM, 25 nM, 12.5 nM, 6.25 nM and 3.13 nM, in the solution of its R3 variant, the concentration was 25 nM, 12.5 nM, 6.25 nM, 3.13 nM and 1.56 nM, and in the solution of its R4 variant, the concentration was 12.5 nM, 6.25 nM, 3.13 nM, 1.56 nM and 0.78 nM.
# (§2) The antibody solutions for measurement at each concentration were delivered to Biacore (registered trademark) 8K (Cytiva) (association time of 120 seconds and dissociation time of 1200 seconds). Measurement data was analyzed using Biacore (registered trademark) Evaluation software, and the data on the affinity of each antibody for an antigen was obtained.
# [2] = biological target: T2, human IL6 protein, His and GST tags …; experiment: SPR (Biacore 8K); affinity ratio with the original antibody as 1.0
# Experimental: as §1, §2
# [3] = biological target: T1, interleukin 8 (CXCL8) (100-175: …); experiment: SPR (Biacore 8K), antigen immobilized on CM4 chip, antibody as analyte
# Experimental: as §1, §2
# [4] = biological target: T1, interleukin 8 (CXCL8) (100-175: …); experiment: SPR (Biacore 8K); affinity ratio with the original antibody as 1.0
# Experimental: as §1, §2
Kd [1],KD ratio [2],Kd [3],KD ratio [4],Binder
0.198 nM,1,–,–,"mouse anti-human IL-6 antibody (clone 58-1), original (unmodified) (Fab, V domains shown, not shown: a dimerising Fc or GST, The heavy entry is VH-CH1 with part of the hinge; the light entry holds only the variable domain; Purified on Ni-NTA, so a His tag is implied but not described; also called Anti-IL-6 antibody (clone 58-1)) VH: EVQLQQSGPELVKPGASVKMSCKASGYTFTSYVMHWVKQKPGQGLEWIGYINPYNDGTKYNEKFKGKATLTSDKSSSTAYMELSSLTSEDSAVYYCAREGYGNLERDCWGQGTSVTVSS VL: not shown"
0.0472 nM,4.2,–,–,"R4 variant of anti-IL-6 antibody (clone 58-1) (Fab, V domains shown, not shown: a dimerising Fc or GST, Light chain positions 63, 65, 67, 70 (Chothia) changed to Arg; Fab) VH: EVQLQQSGPELVKPGASVKMSCKASGYTFTSYVMHWVKQKPGQGLEWIGYINPYNDGTKYNEKFKGKATLTSDKSSSTAYMELSSLTSEDSAVYYCAREGYGNLERDCWGQGTSVTVSS VL: not shown"
0.0812 nM,2.4,–,–,"R3 variant of anti-IL-6 antibody (clone 58-1) (Fab, V domains shown, not shown: a dimerising Fc or GST, Light chain positions 63, 65, 67 (Chothia) changed to Arg; Fab; a His tag is implied by Ni-NTA purification but not described) VH: EVQLQQSGPELVKPGASVKMSCKASGYTFTSYVMHWVKQKPGQGLEWIGYINPYNDGTKYNEKFKGKATLTSDKSSSTAYMELSSLTSEDSAVYYCAREGYGNLERDCWGQGTSVTVSS VL: not shown"
0.0279 nM,7.1,–,–,"R5 variant of anti-IL-6 antibody (clone 58-1) (Fab, V domains shown, not shown: a dimerising Fc or GST, Light chain positions 63, 65, 67, 70, 72 (Chothia) changed to Arg; Fab) VH: EVQLQQSGPELVKPGASVKMSCKASGYTFTSYVMHWVKQKPGQGLEWIGYINPYNDGTKYNEKFKGKATLTSDKSSSTAYMELSSLTSEDSAVYYCAREGYGNLERDCWGQGTSVTVSS VL: not shown"
–,–,1.64 nM,1,"mouse anti-human IL-8 antibody (clone 166-1), original (unmodified) (Fab, V domains shown, not shown: a dimerising Fc or GST, Fab; the light entry holds only the variable domain; a His tag is implied by Ni-NTA purification but not described; also called Anti-IL-8 antibody (clone 166-1)) VH: EVKLVESGGGLVKPGGSLKLSCAASGFTFNNYAMSWVRQTPEKRLEWVASISSGGNTYYPDSVKGRFTLSRDNARNILYLQMSRLRSEDTAMYYCARDKLRLPNWYFDVWGAGTTVTVSS VL: DIVLTQSPPSLAVSLGQRATISCKASQSVDYDGDSYMNWYQQKPGQPPKVLIYGASNLESGIPARFSGSGSGTDFTLNIYPVEEEDAATYYCQQSNEDPPTFGGGTKLEIKR"
–,–,1.17 nM,1.4,"R3 variant of anti-IL-8 antibody (clone 166-1) (Fab, V domains shown, not shown: a dimerising Fc or GST, Light chain positions 63, 65, 67 (Chothia) changed to Arg; Fab) VH: EVKLVESGGGLVKPGGSLKLSCAASGFTFNNYAMSWVRQTPEKRLEWVASISSGGNTYYPDSVKGRFTLSRDNARNILYLQMSRLRSEDTAMYYCARDKLRLPNWYFDVWGAGTTVTVSS VL: DIVLTQSPPSLAVSLGQRATISCKASQSVDYDGDSYMNWYQQKPGQPPKVLIYGASNLESGIPARFRGRGRGTDFTLNIYPVEEEDAATYYCQQSNEDPPTFGGGTKLEIKR"
–,–,0.389 nM,4.2,"R5 variant of anti-IL-8 antibody (clone 166-1) (Fab, V domains shown, not shown: a dimerising Fc or GST, Light chain positions 63, 65, 67, 70, 72 (Chothia) changed to Arg; Fab) VH: EVKLVESGGGLVKPGGSLKLSCAASGFTFNNYAMSWVRQTPEKRLEWVASISSGGNTYYPDSVKGRFTLSRDNARNILYLQMSRLRSEDTAMYYCARDKLRLPNWYFDVWGAGTTVTVSS VL: DIVLTQSPPSLAVSLGQRATISCKASQSVDYDGDSYMNWYQQKPGQPPKVLIYGASNLESGIPARFRGRGRGTRFRLNIYPVEEEDAATYYCQQSNEDPPTFGGGTKLEIKR"
–,–,0.595 nM,2.8,"R4 variant of anti-IL-8 antibody (clone 166-1) (Fab, V domains shown, not shown: a dimerising Fc or GST, Light chain positions 63, 65, 67, 70 (Chothia) changed to Arg; Fab) VH: EVKLVESGGGLVKPGGSLKLSCAASGFTFNNYAMSWVRQTPEKRLEWVASISSGGNTYYPDSVKGRFTLSRDNARNILYLQMSRLRSEDTAMYYCARDKLRLPNWYFDVWGAGTTVTVSS VL: DIVLTQSPPSLAVSLGQRATISCKASQSVDYDGDSYMNWYQQKPGQPPKVLIYGASNLESGIPARFRGRGRGTRFTLNIYPVEEEDAATYYCQQSNEDPPTFGGGTKLEIKR"
20.4 nM,1,–,–,"mouse anti-human IL-6 antibody (clone 44-15), original (unmodified) (Fab, V domains shown, not shown: a dimerising Fc or GST, Fab; the light entry holds only the variable domain; a His tag is implied by Ni-NTA purification but not described; also called Anti-IL-6 antibody (clone 44-15)) VH: DVQLQESGPGLVKPSQTVSLTCTVTGISITTGNYRWSWIRQFPGNKLEWIGYIYYSGAITYNPSLTSRTTITRDTSMNQFFLEMISLTAEDTATYYCARDRYDYAVDFWGQGTSVTVSS VL: DIQMTQSPASLSASVGETVTITCRSSENIYSFLTWFQQRQGKSPHLLVYYANTLAEGVPSRFSGSGSGTQFSLQINSLQPEDFGTYYCQHHYGTPWTFGGGTRLEIKR"
–,–,15.3 nM,1,"mouse anti-human IL-8 antibody (clone 146-1), original (unmodified) (Fab, V domains shown, not shown: a dimerising Fc or GST, Fab; the light entry holds only the variable domain; a His tag is implied by Ni-NTA purification but not described; also called Anti-IL-8 antibody (clone 146-1)) VH: EVQLVESGGGLVKPGGSLKLSCAASGFTFSSYAMSWVRQTPEKRLEWVATISNGGSYTYYPDSLKGRFTISRDNAKNTLYLQMSSLRSEDTAIYYCARGITGGVYFDYWGQGTTLTVSS VL: DIQMTQSPASLSASVGETVTITCRASENIYSYLAWYQQKQGKSPHLLVYDAETLAEGVPSRFSGSGSGTQFSLKINSLQPEDFGSYYCQHHYGTPWTFGGGTKLEIKR"
–,–,5.8 nM,2.6,"R3 variant of anti-IL-8 antibody (clone 146-1) (Fab, V domains shown, not shown: a dimerising Fc or GST, Light chain positions 63, 65, 67 (Chothia) changed to Arg; Fab) VH: EVQLVESGGGLVKPGGSLKLSCAASGFTFSSYAMSWVRQTPEKRLEWVATISNGGSYTYYPDSLKGRFTISRDNAKNTLYLQMSSLRSEDTAIYYCARGITGGVYFDYWGQGTTLTVSS VL: DIQMTQSPASLSASVGETVTITCRASENIYSYLAWYQQKQGKSPHLLVYDAETLAEGVPSRFRGRGRGTQFSLKINSLQPEDFGSYYCQHHYGTPWTFGGGTKLEIKR"
8.38 nM,2.4,–,–,"R4 variant of anti-IL-6 antibody (clone 44-15) (Fab, V domains shown, not shown: a dimerising Fc or GST, Light chain positions 63, 65, 67, 70 (Chothia) changed to Arg; Fab) VH: DVQLQESGPGLVKPSQTVSLTCTVTGISITTGNYRWSWIRQFPGNKLEWIGYIYYSGAITYNPSLTSRTTITRDTSMNQFFLEMISLTAEDTATYYCARDRYDYAVDFWGQGTSVTVSS VL: DIQMTQSPASLSASVGETVTITCRSSENIYSFLTWFQQRQGKSPHLLVYYANTLAEGVPSRFRGRGRGTRFSLQINSLQPEDFGTYYCQHHYGTPWTFGGGTRLEIKR"
–,–,3.14 nM,4.9,"R4 variant of anti-IL-8 antibody (clone 146-1) (Fab, V domains shown, not shown: a dimerising Fc or GST, Light chain positions 63, 65, 67, 70 (Chothia) changed to Arg; Fab) VH: EVQLVESGGGLVKPGGSLKLSCAASGFTFSSYAMSWVRQTPEKRLEWVATISNGGSYTYYPDSLKGRFTISRDNAKNTLYLQMSSLRSEDTAIYYCARGITGGVYFDYWGQGTTLTVSS VL: DIQMTQSPASLSASVGETVTITCRASENIYSYLAWYQQKQGKSPHLLVYDAETLAEGVPSRFRGRGRGTRFSLKINSLQPEDFGSYYCQHHYGTPWTFGGGTKLEIKR"
4.4 nM,4.6,–,–,"R5 variant of anti-IL-6 antibody (clone 44-15) (Fab, V domains shown, not shown: a dimerising Fc or GST, Light chain positions 63, 65, 67, 70, 72 (Chothia) changed to Arg; Fab) VH: DVQLQESGPGLVKPSQTVSLTCTVTGISITTGNYRWSWIRQFPGNKLEWIGYIYYSGAITYNPSLTSRTTITRDTSMNQFFLEMISLTAEDTATYYCARDRYDYAVDFWGQGTSVTVSS VL: DIQMTQSPASLSASVGETVTITCRSSENIYSFLTWFQQRQGKSPHLLVYYANTLAEGVPSRFRGRGRGTRFRLQINSLQPEDFGTYYCQHHYGTPWTFGGGTRLEIKR"
7.16 nM,2.9,–,–,"R3 variant of anti-IL-6 antibody (clone 44-15) (Fab, V domains shown, not shown: a dimerising Fc or GST, Light chain positions 63, 65, 67 (Chothia) changed to Arg; Fab) VH: DVQLQESGPGLVKPSQTVSLTCTVTGISITTGNYRWSWIRQFPGNKLEWIGYIYYSGAITYNPSLTSRTTITRDTSMNQFFLEMISLTAEDTATYYCARDRYDYAVDFWGQGTSVTVSS VL: DIQMTQSPASLSASVGETVTITCRSSENIYSFLTWFQQRQGKSPHLLVYYANTLAEGVPSRFRGRGRGTQFSLQINSLQPEDFGTYYCQHHYGTPWTFGGGTRLEIKR"
–,–,2.4 nM,6.4,"R5 variant of anti-IL-8 antibody (clone 146-1) (Fab, V domains shown, not shown: a dimerising Fc or GST, Light chain positions 63, 65, 67, 70, 72 (Chothia) changed to Arg; Fab) VH: EVQLVESGGGLVKPGGSLKLSCAASGFTFSSYAMSWVRQTPEKRLEWVATISNGGSYTYYPDSLKGRFTISRDNAKNTLYLQMSSLRSEDTAIYYCARGITGGVYFDYWGQGTTLTVSS VL: DIQMTQSPASLSASVGETVTITCRASENIYSYLAWYQQKQGKSPHLLVYDAETLAEGVPSRFRGRGRGTRFRLKINSLQPEDFGSYYCQHHYGTPWTFGGGTKLEIKR"

# Reference: US20230091175A1 (SYSMEX, published 2023)
